What was measured:
[1] = molecular target: GST-tagged N-terminal fragment of GRK1 (M1-G183) (UniProt P28327); experiment: pull-down; 50 μg GST-N-GRK1 immobilised on Glutathione Sepharose; 25 μM NCS-1 applied; 20 mM Tris pH 8.0, 150 mM NaCl, 1 mM DTT, 1 mM CaCl2 and 0-100 μM ZnCl2; 1 h at 4°C; bound NCS-1 detected by western blotting
[2] = molecular target: Dopamine receptor D2 (D2R) peptide (N430-R443); experiment: ITC; MicroCal VP-ITC; 50 μM D2R peptide in the cell titrated with NCS-1 (1 mM stock, thirty 10 μl injections); 25°C; 20 mM Tris-HCl pH 8.0, 150 mM NaCl, 5 mM CaCl2; one set of sites model
[3] = molecular target: Dopamine receptor D2 (D2R) peptide (N430-R443); experiment: ITC; MicroCal VP-ITC; 50 μM D2R peptide in the cell titrated with NCS-1; 25°C; 20 mM Tris-HCl pH 8.0, 150 mM NaCl, 5 mM CaCl2 and 100 μM ZnCl2; one set of sites model

Sequence of UniProt P28327 (P28327 1-183): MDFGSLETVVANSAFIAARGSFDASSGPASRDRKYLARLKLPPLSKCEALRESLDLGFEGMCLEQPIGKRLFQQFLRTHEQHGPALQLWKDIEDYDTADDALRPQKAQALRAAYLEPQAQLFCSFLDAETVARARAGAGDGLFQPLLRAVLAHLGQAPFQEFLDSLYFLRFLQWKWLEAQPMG

- fold change of binding with 25 μM Zn^2+ against no Zn^2+ [1]: 2 fold
- Ka [2]: 33200 M⁻¹
- Kd [2]: 30.1 µM
- dH [2]: -3 kcal/M
- stoichiometry N [2]: 0.676
- Ka [3]: 118000 M⁻¹
- Kd [3]: 8.47 µM
- dH [3]: -3.2 kcal/M
- stoichiometry N [3]: 0.508
Substance: Neuronal calcium sensor-1 (recombinant myristoylated NCS-1) (from UniProt P62166 1-190) (natural protein)
